In the RNAGym collection of RNA variant scans (doi:10.1093/molbev/msab373) one finds reverse-splicing fitness data, which are given here for 84 variants.

First the molecules themselves.
B1: Azoarcus group I ribozyme (parent)
chain: GUGCCUUGCGCCGGGAAACCACGCAAGGGAUGGUGUCAAAUUCGGCGAAACCUAAGCGCCCGCCCGGGCGUAUGGCAACGCCGAGCCAAGCUUCGGCGCCUGCGCCGAUGAAGGUGUAGAGACUAGACGGCACCCACCUAAGGCAAACGCUAUGGUGAAGGCAUAGUCCAGGGAGUGGCGAAAGUCACACAAACCGG

Variants of B1 are the subject of this data set. Nature of the data set: reverse-splicing fitness (ratio to wild type); higher = more active; in vitro selection; Mg2+ level not given. In outline:
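An in vitro group I ribozyme library with randomized positions was T7-transcribed and gel-purified. In triplicate, 10 pmol RNA in EPPS pH 7.5 was reacted with 50 pmoles of a 30-nt RNA substrate for 1 h at 37 °C across several added MgCl2 levels (1–48 mM), then stopped with EDTA. Products were reverse transcribed from a substrate-complementary primer, PCR-amplified and sequenced (HiSeq 4000). Fitness is a variant's read proportion after selection over that before, normalised to wild type.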
With A111U A120G A145G C169A U176G, the reverse-splicing fitness is 0.00472. The figure for A111U A120G A145G C169A U176A is 0.0312. In the case of A111U A120G A145G C169A U176C it was 0.0453; in that of A111U A120G A145G C150G C169U U176C, 0.015; in that of A111U A120G A145G C150G C169U U176A, 0.0113.

On to A111U A120G A145G C150G C169U U176G, for which the reverse-splicing fitness is 0.00728. The figure for A111U A120G A145C C150G C169A U176G is 0.00416.

A111U A120G A145C C150G C169A U176A: the reverse-splicing fitness worked out at 0.00822. A111U A120G A145C C150G C169A U176C: the reverse-splicing fitness amounted to 0.00757. The figure for A111U A120C C169A U176C is 0.017; for A111U A120C C169A U176G it is 0.00415; for A111U A120C C169A U176A it is 0.0174.

For A111U A120G A145C, the reverse-splicing fitness is 0.159. The figure for A111U A120G A145G is 0.175; for A111U A120G A145U it is 0.172. The figure for A111U A120G A145C C150G U176C is 0.0143; for A111U A120G A145C C150G U176G it is 0.00302; for A111U A120G A145C C150G U176A it is 0.00783. A111U A120C C150G C169G U176G: the reverse-splicing fitness amounted to 0.00508. As to A111U A120C C150G C169G U176A, the reverse-splicing fitness turned out to be 0.00683. Take A111U A120C C150G C169G U176C: the reverse-splicing fitness is 0.00491. The figure for A111U A120G A145C U176G is 0.00566; for A111U A120G A145C U176A it is 0.038; for A111U A120G A145C U176C it is 0.0455.

As for A111U A120C A145U C150A U176G, the reverse-splicing fitness came to 0.0114.

Turning to A111U A120C A145U C150A U176C, the reverse-splicing fitness turned out to be 0.0509. In the case of A111U A120C A145U C150A U176A it was 0.034. For A111U A120G A145U C150A C169U, the reverse-splicing fitness is 0.0181. The figure for A111U A120G A145U C150A C169A is 0.0164; for A111U A120G A145U C150A C169G it is 0.0206. The figure for A111U A120G A145C C150U C169U is 0.0397; for A111U A120G A145C C150U C169G it is 0.0495.

For A111U A120G A145C C150U C169A, the reverse-splicing fitness amounted to 0.0284. The figure for A111U A120C A145U U176A is 0.259; for A111U A120C A145U U176C it is 0.3. The figure for A111U A120C A145U U176G is 0.0572. In the case of A111U A120C A145U C169G U176C it was 0.00915.

Regarding A111U A120C A145U C169G U176G, the reverse-splicing fitness is 0.00415. In the case of A111U A120C A145U C169G U176A it was 0.00823; in that of A111U A120G A145C C150A C169U U176C, 0.0114; in that of A111U A120G A145C C150A C169U U176A, 0.0208. The figure for A111U A120G A145C C150A C169U U176G is 0.00521; for A111U A120G A145G C169G it is 0.222; for A111U A120G A145G C169U it is 0.158. The figure for A111U A120G A145G C169A is 0.119.

Consider A111U A120C C150U C169U U176G, for which the reverse-splicing fitness turned out to be 0.00585. In the case of A111U A120C C150U C169U U176A, the reverse-splicing fitness came out at 0.0292. The figure for A111U A120C C150U C169U U176C is 0.0362; for A111U A120G A145U C150A C169U U176C it is 0.0173; for A111U A120G A145U C150A C169U U176A it is 0.0271. The figure for A111U A120G A145U C150A C169U U176G is 0.0052. The figure for A111U A120C A145U C150A C169A is 0.00875. For A111U A120C A145U C150A C169U, the reverse-splicing fitness amounted to 0.0213.

Consider A111U A120C A145U C150A C169G, for which the reverse-splicing fitness is 0.00755.

Turning to A111U A120C A145G C150U C169G U176A, the reverse-splicing fitness was found to be 0.0125.

For the variant A111U A120C A145G C150U C169G U176G, the reverse-splicing fitness amounted to 0.00528. As for A111U A120C A145G C150U C169G U176C, the reverse-splicing fitness stood at 0.0168. The figure for A111U A120G A145U C150G C169G U176C is 0.0049; for A111U A120G A145U C150G C169G U176G it is 0.00439.

On to A111U A120G A145U C150G C169G U176A, for which the reverse-splicing fitness stood at 0.00701. For the variant A111U A120G A145C C150U, the reverse-splicing fitness was 0.0388. The figure for A111U A120G A145C C150G is 0.0213. The figure for A111U A120G A145C C150A is 0.0115; for A111U A120G A145G C150U it is 0.133. For A111U A120G A145G C150A, the reverse-splicing fitness worked out at 0.0285. Take A111U A120G A145G C150G: the reverse-splicing fitness was found to be 0.0235.

For the variant A111U A120G A145C C169G U176A, the reverse-splicing fitness stood at 0.0371. As to A111U A120G A145C C169G U176G, the reverse-splicing fitness turned out to be 0.00442. The figure for A111U A120G A145C C169G U176C is 0.0387; for A111U A120G A145G C150U U176A it is 0.0295. As to A111U A120G A145G C150U U176G, the reverse-splicing fitness stood at 0.00725. As to A111U A120G A145G C150U U176C, the reverse-splicing fitness was 0.0446. With A111U A120C C150A C169U U176C, the reverse-splicing fitness stood at 0.0196. The figure for A111U A120C C150A C169U U176G is 0.00713. The figure for A111U A120C C150A C169U U176A is 0.0243.

For A111U A120G A145G U176G, the reverse-splicing fitness stood at 0.00558.

Consider A111U A120G A145G U176A, for which the reverse-splicing fitness was determined as 0.0417.

For the variant A111U A120G A145G U176C, the reverse-splicing fitness is 0.0543.

Turning to A111U A120C A145G U176G, the reverse-splicing fitness worked out at 0.0419. For A111U A120C A145G U176A, the reverse-splicing fitness was determined as 0.246.

A111U A120C A145G U176C: the reverse-splicing fitness is 0.306.

Take A111U A120G A145G C169G U176C: the reverse-splicing fitness amounted to 0.0601. In the case of A111U A120G A145G C169G U176G it was 0.00492; in that of A111U A120G A145G C169G U176A, 0.0455.
